Data from article PMC11506342, “Ratiometric Electrochemical Detection of Interleukin-6 Using Electropolymerized Methylene Blue and a Multi-Walled Carbon-Nanotube-Modified Screen-Printed Carbon Electrode”.

Molecular target: interleukin-6 (IL-6) (UniProt P05231 30-212)
Experiment: electrochemical aptasensor (DPV, [Fe(CN)6]3-/4- vs poly-methylene blue); aptamer immobilised on CS/MWCNT/pMB electrode, BSA blocked; 30 min incubation; linear 0.001-1000 ng/mL, LOD 0.54 pg/mL (not a Kd); 1 uM aptamer for immobilisation, IL-6 incubated 30 min with stirring; binding buffer, salt, pH and temperature not given in the material
Conditions: protein: commercial; hairpin (stated)

Chain of interleukin-6 (IL-6) (P05231 30-212): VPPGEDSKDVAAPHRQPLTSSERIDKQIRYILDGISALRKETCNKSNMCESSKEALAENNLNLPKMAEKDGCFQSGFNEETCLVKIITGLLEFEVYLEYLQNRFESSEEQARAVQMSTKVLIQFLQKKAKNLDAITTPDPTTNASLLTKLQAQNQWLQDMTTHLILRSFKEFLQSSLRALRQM

B1: IL-6 aptamer (NH2-Apt) (ssDNA)
DNA: GGTGGCAGGAGGACTATTTATTTGCTTTTCT
modifications: 3'-NH2
binding result: binds
